Bridge positions count the residues as written; N and C are the ends. Square brackets hold non-standard residues; d marks the D form. Ends that are not written are not given here. Aib = CC(C)(N)C(=O)O
Key:
Format in all cases: cell-based
human GCG receptor = biological target: T1, human GCG receptor (Homo sapiens, UniProt P47871); test: In vitro cAMP activity in human GCG receptor-expressing CHO cells (LANCE cAMP kit); conditions: for In vitro activity compared to native-type peptide (%) vs Glucagon: long-acting conjugate, relative titer from cAMP EC50 compared to human GCG; for activity on the glucagon receptor: in words
T1 construct: expressed in transfected cells; host or cells: Chinese hamster ovary (CHO)
T1 sequence (P47871 26-477): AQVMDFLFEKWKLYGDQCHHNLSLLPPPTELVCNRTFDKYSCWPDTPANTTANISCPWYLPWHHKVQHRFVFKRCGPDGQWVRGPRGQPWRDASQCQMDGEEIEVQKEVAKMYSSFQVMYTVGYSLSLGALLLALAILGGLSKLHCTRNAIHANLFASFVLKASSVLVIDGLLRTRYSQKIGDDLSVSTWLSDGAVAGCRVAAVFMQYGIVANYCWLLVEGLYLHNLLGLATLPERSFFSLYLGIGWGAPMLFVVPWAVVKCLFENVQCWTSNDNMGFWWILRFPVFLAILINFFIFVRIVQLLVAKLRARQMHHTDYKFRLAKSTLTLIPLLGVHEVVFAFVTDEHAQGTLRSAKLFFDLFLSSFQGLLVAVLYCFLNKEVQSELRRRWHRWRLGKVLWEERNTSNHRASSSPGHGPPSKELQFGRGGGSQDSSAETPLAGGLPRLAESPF
Experimental: (§1) In order to measure the activity of the triple agonists and long-acting conjugates thereof prepared according to Examples 1 and 2, the in-vitro cell activity was measured using cell lines transformed with GLP-1 receptor, glucagon (GCG) receptor, and GIP receptor, respectively.
(§2) The cell lines were transformed to express human GLP-1 receptor, human GCG receptor and human GIP receptor genes in Chinese hamster ovary (CHO), respectively, and are suitable for measuring the activities of GLP-1, GCG, and GIP. Therefore, the activity for each part was measured using each transformed cell line.
(§3) To measure the GCG activity of the triple agonists and long-acting conjugates prepared according to Examples 1 and 2, human GCG was diluted from 50 nM to nM by 4-fold serial dilution, and the triple agonists and long-acting conjugates thereof prepared according to Examples 1 and 2 were diluted from 400 nM to 0.00038 nM by 4-fold serial dilution. The culture medium was removed from the cultured human GCG receptor-expressing CHO cells, 5 μl of each of the serially diluted materials was added to the cells, and then 5 μl of buffer containing cAMP antibody was added to the cells, followed by 15 minutes of incubation at room temperature. Then, cells were lysed by adding 10 μl of detection mix containing cell lysis buffer, and reacted at room temperature for 90 minutes. The cell lysate after the reaction had been completed, was applied to the LANCE cAMP kit (PerkinElmer, USA) to calculate the EC50 value through the accumulated cAMP, and then compared with each other.

human GLP-1 receptor = biological target: T2, human GLP-1 receptor (Homo sapiens, UniProt P43220); test: In vitro cAMP activity in human GLP-1 receptor-expressing CHO cells (LANCE cAMP kit); conditions: long-acting conjugate; relative titer from cAMP EC50 compared to human GLP-1
T2 construct: expressed in transfected cells; host or cells: Chinese hamster ovary (CHO)
T2 sequence (P43220 24-463): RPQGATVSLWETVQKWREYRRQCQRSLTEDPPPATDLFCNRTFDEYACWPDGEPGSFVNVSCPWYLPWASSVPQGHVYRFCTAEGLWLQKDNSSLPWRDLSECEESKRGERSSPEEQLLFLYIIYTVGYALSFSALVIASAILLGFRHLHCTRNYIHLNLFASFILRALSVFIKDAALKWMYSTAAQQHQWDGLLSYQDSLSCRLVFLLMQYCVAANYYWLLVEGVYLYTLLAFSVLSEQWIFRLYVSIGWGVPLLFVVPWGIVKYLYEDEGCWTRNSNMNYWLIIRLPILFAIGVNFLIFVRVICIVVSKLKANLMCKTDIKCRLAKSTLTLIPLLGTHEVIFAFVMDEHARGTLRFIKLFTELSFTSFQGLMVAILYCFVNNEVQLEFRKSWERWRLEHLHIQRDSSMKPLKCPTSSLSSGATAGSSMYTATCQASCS
Experimental: as §1, §2
as §3, with “measure the GLP-1 activity of” for “measure the GCG activity of”, “2, human GLP-1 was diluted” for “2, human GCG was diluted”, “nM to 0.000048 nM by” for “nM to nM by”, “cultured human GLP-1 receptor-expressing CHO” for “cultured human GCG receptor-expressing CHO”

human GIP receptor = biological target: T3, human GIP receptor (Homo sapiens, UniProt P48546); test: In vitro cAMP activity in human GIP receptor-expressing CHO cells (LANCE cAMP kit); conditions: long-acting conjugate; relative titer from cAMP EC50 compared to human GIP
T3 construct: expressed in transfected cells; host or cells: Chinese hamster ovary (CHO)
T3 sequence (P48546 22-466): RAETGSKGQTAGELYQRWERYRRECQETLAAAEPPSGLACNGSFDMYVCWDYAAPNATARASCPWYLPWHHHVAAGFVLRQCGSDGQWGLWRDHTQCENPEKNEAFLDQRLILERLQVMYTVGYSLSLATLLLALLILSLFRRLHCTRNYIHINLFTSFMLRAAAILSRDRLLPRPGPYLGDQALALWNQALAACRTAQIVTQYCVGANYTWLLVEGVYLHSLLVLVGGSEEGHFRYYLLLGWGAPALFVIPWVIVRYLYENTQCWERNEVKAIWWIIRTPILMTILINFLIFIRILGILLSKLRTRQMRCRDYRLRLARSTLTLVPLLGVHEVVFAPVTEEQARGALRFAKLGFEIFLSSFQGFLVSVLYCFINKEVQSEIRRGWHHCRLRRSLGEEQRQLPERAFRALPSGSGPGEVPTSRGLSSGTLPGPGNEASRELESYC
Experimental: as §1, §2
as §3, with “measure the GIP activity of” for “measure the GCG activity of”, “long-acting conjugates thereof prepared according” for “long-acting conjugates prepared according”, “2, human GIP was diluted” for “2, human GCG was diluted”, “cultured human GIP receptor-expressing CHO” for “cultured human GCG receptor-expressing CHO”

Row | Substance | In vitro activity compared to native-type peptide (%) vs Glucagon (human GCG receptor) | In vitro activity compared to native-type peptide (%) vs GLP-1 (human GLP-1 receptor) | In vitro activity compared to native-type peptide (%) vs GIP (human GIP receptor) | activity on the glucagon receptor (human GCG receptor)
1 | 50 (H[Aib]QGTFTSDYSKYLDEKRAKEFVQWLLDHHPSSGQPPPSC; lactam 16-20) [compound 50] | 6.9% | 15.4% | 0.7% | –
2 | 43 (Y[Aib]QGTFTSDYSKYLDEKRAKEFVQWLLDHHCSSGQPPPS; lactam 16-20) [compound 43] | 13.5% | 2.1% | 0.6% | –
3 | YXQGTFTSDYSKYLDEKRAKEFVQWLLDCHPSSGQPPPS (Y[Aib]QGTFTSDYSKYLDEKRAKEFVQWLLDCHPSSGQPPPS; lactam 16-20) [Sequence number 97] | – | – | – | very high activity
4 | YXQGTFTSDYSKYLDEKRAKEFVQWLLDHHCSSGQPPPS (Y[Aib]QGTFTSDYSKYLDEKRAKEFVQWLLDHHCSSGQPPPS; lactam 16-20) [Sequence number 43] | – | – | – | very high activity
5 | 96 (Y[Aib]QGTFTSDYSKYLDEKRAKEFVQWLLDHCPSSGQPPPS; lactam 16-20) [compound 96] | 4.0% | 0.3% | 0.3% | –
6 | YXQGTFTSDYSKYLDECRAKEFVQWLLDHHPSSGQPPPS (Y[Aib]QGTFTSDYSKYLDECRAKEFVQWLLDHHPSSGQPPPS; lactam 16-20) [Sequence number 21] | – | – | – | very high activity
7 | 77 (Y[Aib]QGTFTSDYSKYLDEKAAKDFVQWLLDHHPSSGQPPPSC; lactam 16-20) [compound 77] | 1.7% | 6.7% | 6.6% | –
8 | YXQGTFTSDYSKYLDECRAKDFVQWLLDHHPSSGQPPPS (Y[Aib]QGTFTSDYSKYLDECRAKDFVQWLLDHHPSSGQPPPS; lactam 16-20) [Sequence number 66] | – | – | – | very high activity
9 | 42 (Y[Aib]QGTFTSDYSKYLDEKRAKEFVQWLLDHHPSSGQPPPSC; lactam 16-20) [compound 42] | 23.1% | 3.1% | 1.2% | –
10 | 22 (Y[Aib]QGTFTSDYSKCLDEKRAKEFVQWLLDHHPSSGQPPPS; lactam 16-20) [compound 22] | 0.9% | 0.1% | 0.5% | –
11 | YXQGTFTSDYSKYLDEKRAKEFVQWLLDHCPSSGQPPPS (Y[Aib]QGTFTSDYSKYLDEKRAKEFVQWLLDHCPSSGQPPPS; lactam 16-20) [Sequence number 96] | – | – | – | very high activity
12 | YXQGTFTSDYSKYLDEKRAKEFVQWLLDHHPSSGQPPPSC (Y[Aib]QGTFTSDYSKYLDEKRAKEFVQWLLDHHPSSGQPPPSC; lactam 16-20) [Sequence number 42] | – | – | – | very high activity
13 | YXQGTFTSDYSKCLDEKRAKEFVQWLLDHHPSSGQPPPS (Y[Aib]QGTFTSDYSKCLDEKRAKEFVQWLLDHHPSSGQPPPS; lactam 16-20) [Sequence number 22] | – | – | – | very high activity
14 | 21 (Y[Aib]QGTFTSDYSKYLDECRAKEFVQWLLDHHPSSGQPPPS; lactam 16-20) [compound 21] | 1.6% | 0.1% | 0.2% | –

Reference: patent US20230381333A1, “PHARMACEUTICAL COMPOSITION COMPRISING GLUCAGON/GLP-1/GIP TRIPLE AGONIST OR LONG-ACTING CONJUGATE THEREOF FOR PREVENTING OR TREATING VASCULITIS” (HANMI PHARM CO., LTD., priority 2020, published 2023)
